Data reported in patent US20240166767A1 (SCIRHOM, published 2024).

T1: dog iRhom2 full length wild type C-terminally tagged with 3 consecutive copies of the T7 epitope (dog, UniProt Q00M95 1-827)
T1 construct: whole, on cells; also called dog-iR2-FL-WT-T7; expressed by MEF-DKO-Dog-iR2-FL-WT-T7 cells
T1 sequence: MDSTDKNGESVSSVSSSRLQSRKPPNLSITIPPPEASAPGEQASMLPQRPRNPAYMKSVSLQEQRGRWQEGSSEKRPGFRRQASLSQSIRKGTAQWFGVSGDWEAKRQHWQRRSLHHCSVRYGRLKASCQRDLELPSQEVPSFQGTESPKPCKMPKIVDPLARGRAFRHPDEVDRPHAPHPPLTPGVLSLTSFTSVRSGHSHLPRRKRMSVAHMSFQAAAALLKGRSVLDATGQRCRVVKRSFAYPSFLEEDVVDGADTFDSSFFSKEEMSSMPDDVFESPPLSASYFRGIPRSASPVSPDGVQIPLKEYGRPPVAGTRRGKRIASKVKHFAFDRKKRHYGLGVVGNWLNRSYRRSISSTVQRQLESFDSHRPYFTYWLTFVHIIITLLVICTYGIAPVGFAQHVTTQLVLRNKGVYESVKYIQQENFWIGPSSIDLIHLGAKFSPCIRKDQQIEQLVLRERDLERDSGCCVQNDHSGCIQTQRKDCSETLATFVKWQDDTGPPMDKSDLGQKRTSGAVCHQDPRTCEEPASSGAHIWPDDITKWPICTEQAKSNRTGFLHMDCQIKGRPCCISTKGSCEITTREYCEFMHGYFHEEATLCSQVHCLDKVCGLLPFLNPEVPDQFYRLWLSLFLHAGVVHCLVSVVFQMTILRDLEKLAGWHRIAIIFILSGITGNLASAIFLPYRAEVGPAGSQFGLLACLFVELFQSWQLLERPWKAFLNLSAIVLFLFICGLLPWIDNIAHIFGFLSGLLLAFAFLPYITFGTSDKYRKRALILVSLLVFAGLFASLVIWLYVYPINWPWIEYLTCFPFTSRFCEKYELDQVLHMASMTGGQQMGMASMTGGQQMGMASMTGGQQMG


Molecular target: T1, dog iRhom2 full length wild type …
Test: FACS on MEF-DKO-Dog-iR2-FL-WT-T7 cells, 3 µg/ml
Experimental: In brief, immortalized MEF-DKO-EV control cells, MEF-DKO-rhesus-iR2-FL-WT-T7 cells, MEF-DKO-cyno-iR2-FL-WT-T7 cells, MEF-DKO-dog-iR2-FL-WT-T7 cells and MEF-DKO-rabbit-iR2-FL-WT-T7 cells, as well as their respective iRhom1 counterparts, were harvested with 10 mM EDTA in PBS, washed and resuspended in FACS buffer (PBS, 3% FBS, 0.05% sodium azide), and seeded in Nunc U-bottom 96-well plates (Thermo Fisher Scientific, USA) at approximately 3×10⁵ cells per well. To pellet cells and remove supernatants, the plates were centrifuged at 1,500 rpm and 4° C. for 3 minutes. For primary staining, cells were resuspended in 100 μl per well of either FACS buffer alone (controls), mouse monoclonal anti-T7 IgG (Merck Millipore, USA) at 3 μg/ml FACS buffer or the antibodies of the invention also at 3 μg/ml FACS buffer and incubated on ice for 1 hour. Afterwards, plates were centrifuged at 1,500 rpm and 4° C. for 3 minutes and washed twice with 200 μl per well of FACS buffer. For secondary staining of previous anti T7 staining, cells were spun down and resuspended in 100 μl per well of PE-conjugated goat anti-mouse IgG F(ab′)2 detection fragment (Dianova, Germany) diluted 1:100 in FACS buffer. For secondary staining of previous staining with humanized antibodies of invention, cells were spun down and resuspended in 100 μl per well of PE-conjugated goat anti-human IgG F(ab′)2 detection fragment (Dianova, Germany) diluted 1:100 in FACS buffer. Protected from light, the cell suspensions were incubated on ice for 1 hour. Plates were then centrifuged at 1,500 rpm and 4° C. for 3 minutes and washed three times with 200 μl per well of FACS buffer. Finally, cells were resuspended in 150 μl per well of FACS buffer and analyzed using a BD Accuri™ C6 Plus flow cytometer (Becton Dickinson, Germany).

| Binder | binding result |
| --- | --- |
| humanized antibody 42-B-04 (antibody, V domains shown, Tested as whole humanized antibody produced in CHO cells and detected with anti-human IgG; the general methods speak of human IgG1/Kappa; also called clone 42-B-04) VH: QVTLRESGPALVKPTQTLTLTCTFSGFSLSTFGRGVGWIRQPPGKALEWLAHIWWDDEKYYNSALKSRLTISKDTSKNQVVLTITNMDPVDTATYYCARIQNYGSNYWYFDVWGQGTLVTVSS VL: AIQLTQSPSSLSASVGDRVTITCRASSRISYMFWYQQKPGKAPKVLIYDTSNLASGVPSRFSGSGSGTDYTLTISSLQPEDFATYYCQQWNAYPLTFGQGTKLEIK | binds |
| humanized antibody 23-B-04 (antibody, V domains shown, Tested as whole humanized antibody produced in CHO cells and detected with anti-human IgG; the general methods speak of human IgG1/Kappa; also called clone 23-B-04) VH: QVTLRESGPALVKPTQTLTLTCTFSGFSLSTFGMGVGWIRQPPGKALEWLAHIWWDDEKYYNSALKSRLTISKDTSKNQVVLTITNMDPVDTATYYCARISNYGSNYWYFNVWGQGTLVTVSS VL: AIQLTQSPSSLSASVGDRVTITCRASSSVSYMYWYQQKPGKAPKVLIYDTSNLASGVPSRFSGSGSGTDYTLTISSLQPEDFATYYCQQWNAYPLTFGQGTKLEIK | binds |
| humanized antibody 42-B-02 (antibody, V domains shown, Tested as whole humanized antibody from transient expression of heavy chain/kappa light chain pairs in CHO cells, detected with anti-human IgG; the general methods speak of human IgG1/Kappa; also called clone 42-B-02) VH: QVTLRESGPALVKPTQTLTLTCTFSGFSLSTFGRGVGWIRQPPGKALEWLAHIWWDDEKYYNSALKSRLTISKDTSKNQVVLTITNMDPVDTATYYCARIQNYGSNYWYFDVWGQGTLVTVSS VL: AIQLTQSPSSLSASVGDRVTITCRASSRISYMFWYQQKPGKAPKVLIYDTSNLASGVPSRFSGSGSGTDYTLTISSLQPEDFATYYCQQWNSYPLTFGQGTKLEIK | binds |
| humanized antibody 16-B-07 (antibody, V domains shown, Tested as whole humanized antibody produced in CHO cells and detected with anti-human IgG; the general methods speak of human IgG1/Kappa; also called clone 16-B-07) VH: QVTLRESGPALVKPTQTLTLTCTFSGFSLSTFALGVGWIRQPPGKALEWLAHIWWDEDKYYNPALKSRLTISKDTSKNQVVLTITNMDPVDTATYYCARITTYYYGMDYWGQGTLVTVSS VL: EIVMTQSPDFQSVTPKEKVTITCRASQSIGNHLHWYQQKPDASPKLLIKYASQSISGVPSRFSGSGSGTDFTLTINSLEAEDAATYFCQQSYQWPLTFGQGTKLEIK | binds |
| humanized antibody 16-B-05 (antibody, V domains shown, Tested as whole humanized antibody produced in CHO cells and detected with anti-human IgG; the general methods speak of human IgG1/Kappa; The printed LCVD reads SRESGSG where the printed cDNA encodes SRFSGSG; also called clone 16-B-05) VH: QVTLRESGPALVKPTQTLTLTCTFSGFSLSTFALGVGWIRQPPGKALEWLAHIWWDEDKYYNPALKSRLTISKDTSKNQVVLTITNMDPVDTATYYCARITTYYYGMDYWGQGTLVTVSS VL: EIVMTQSPDFQSVTPKEKVTITCRASQSIGNHLHWYQQKPDASPKLLIKYASQSISGVPSRFSGSGSGTDFTLTINSLEAEDAATYFCQQSYNWPLTFGQGTKLEIK | binds |
